Measured values: the supplement of paper PMC9170038

Experiments:
MS2 coat protein [1] = assay: apparent KD of MS2 coat protein, switch OFF state (with FMN for OFF switches, without FMN for ON switches); designed switch direction (-1 OFF switch, 1 ON switch): -1; higher = weaker reporter binding; settings: FMN input: 0 or 200 uM; Eterna round: R93 (includes R88 designs)
How it was run: (§1)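 Designed RNA switches were transcribed on-chip from Illumina sequencing clusters. They were then titrated with SNAP-549-labelled MS2 coat protein (twofold steps, 0.7 or 1.5 nM to 3 µM; 0.8–1.5 h to 10–20 min per step) in 100 mM Tris-HCl pH 7.5, 80 mM KCl, 4 mM MgCl2, without or with constant ligand. Apparent KD is the per-design median of normalised cluster binding-curve fits.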

MS2 coat protein [2] = assay: apparent KD of MS2 coat protein, switch ON state; designed switch direction (-1 OFF switch, 1 ON switch): -1; higher = weaker reporter binding; settings: FMN input: 0 or 200 uM; Eterna round: R93 (includes R88 designs)
How it was run: as §1

Sequence | apparent KD of MS2 coat protein (MS2 coat protein [1]) | apparent KD of MS2 coat protein (MS2 coat protein [2])
CUCUUGUCAGGAUAUCGAAGAAAAGAAAAGAAAGAAAAGAACGAGAAGGGACAUGAGGAUCACCCAUGUAAGAA [EteRNA is fun!] | 67.6 nM | 61.5 nM
CUCUUGUGAGGAUAUAGAAGAAAAGAAGAGAAAGAAAAGAACUAGAAGGCACAUGAGGAUCACCCAUGUAAGAA [EteRNA is fun!] | 39.9 nM | 34.3 nM
CUCUUGUGAGGAUAUUGAAGAAAAGAAAAGAAAGAAAAGAACAAGAAGGCACAUGAGGAUCACCCAUGUAAGAA [EteRNA is fun!] | 36.5 nM | 24.8 nM
CUGCAGUAAGGAUAUACAUGAGGAUCACCCAUGUAGGAACUUACAGAACGAAACGCAUGUAGAAGGUACCAGAA [Enususge] | 14.3 nM | 14.2 nM
CUUAUGUGAGGAUAUCAGUAGUAAAAAAAAAAAAUUACUACUGAGAAGGCACAUGAGGAUCACCCAUGUGCCUU [EX4 323: Super Stable 23] | 14.2 nM | 14.4 nM
GAAAAACAUGAGGAUCACCCAUGUGAGGAUAUGAACGAAAUAAAAUAAAAAUAAAAGUUCAGAAGGCACAAAAG [Mat - Exclusion 1 - Eli mod - D12] | 69.9 nM | 34 nM
GAAAAACAUGAGGAUCACCCAUGUUAGGAUAUGCUAUGGAAAAUAAAAAAUAAACAUAGCAGAAGGAACAAAAG [Mat - Exclusion 1 - Eli mod - D31] | 36.7 nM | 20.3 nM
GAAAACAGAGGAUAUACAUAAGCUAGACGAAAGUCUAGCAAACAUGAGGAUCACCCAUGUAGAAGGCUGAAGAA [Meechl Mod] | 27.7 nM | 29.2 nM
GAAAACAGAGGAUAUACAUGAUUAUGACGAAAGUCAUAAAAACAUGAGGAUCACCCAUGUAGAAGGCUGAAGAA [Meechl MS2 Ex2 2] | 164 nM | 130 nM
GAAAACUGAGGAUAUACUUUGGGAAAAGAAAAGAUGAUGUUACAUGAGGAUCACCCAUGUAGAAGGCAGAAAAG [Mat - Exclusion 2 - Mod - D151] | 34.5 nM | 25.3 nM
GAAAAGUCAGGAUAUACAGAAAAAAAAACGAAAAAAAAUCUGUAGAAGGGACAUGAGGAUCACCCAUGUUAAAA [Mat - Exclusion 4 - Mayanna - D125] | 24 nM | 46.9 nM
GAAAAGUCAGGAUAUAUGCGAAAAAUAAAAAAAAUAAAAACAUAGAAGGGACAUGAGGAUCACCCAUGUUAAAG [Mat - Exclusion 4 - Mayanna - D135] | 25.4 nM | 37.7 nM
GAAAAGUGAGGAUAUAGCAAAGGUCACGAAAGUGACAAAGGCUAGAAGGCACAUGAGGAUCACCCAUGUCCAAG [Mat - Exclusion 4 - Eli mod - D99] | 49.9 nM | 20.3 nM
GAAAAGUGAGGAUAUGUCAAAAGUCACAAAAGUGACAAAAGACAGAAGGCACAUGAGGAUCACCCAUGUGGAAG [Mat - Exaclusion 4 - Eli mod - D52] | 41.1 nM | 33.8 nM
GAAAAGUGAGGAUAUGUCAAAAGUCACAAAAGUGACAAAAGACAGAAGGCACAUGAGGAUCACCCAUGUGGGAA [Mat - Exaclusion 4 - Eli mod - D50] | 211 nM | 58.5 nM
GAAAAGUGAGGAUAUUCGGAUAGGAAAACGAAAACCUAUCCGAAGAAGGCACAUGAGGAUCACCCAUGUGGGAA [Mat - Exaclusion 4 - Eli mod - D49] | 119 nM | 80.3 nM
GAAAGGGCAGGAUAUGCAGAGAGAGAGAGAGAGAGAAAAAAACAUGAGGAUCACCCAUGUAGAAGGGCCGAAAG [salish99-ex2-06] | 52.4 nM | 38.5 nM
GAAAUGUCAGGAUAUGCGAAGGCGUCUGAUAGACGAGGAUAGCAGAAGGGACAUGAGGAUCACCCAUGUAAAAA [Opal 13] | 220 nM | 117 nM
GAACGCCUAGGAUAUACAUGAGGAUCACCCAUGUCUCCCAGUCCUGGAGUGACCUCUAGUAGAAGGAGGAAUAA [Ertein] | 115 nM | 342 nM
GAAGAACAUGAGGAUCACCCAUGUGAGGAUAUACAGAAGGGAAUAAAAUAACCAGAAAGUAGAAGGCACAAGAA [Ex 1 May 40] | 45.7 nM | 35.1 nM
GAGGAACAUGAGGAUCACCCAUGUGAGGAUAUCGGAGGAGGAGGAGGAGGAGGAGGAGCGAGAAGGUACAAGAG [salish99-Ex1-03] | 29.8 nM | 22.7 nM
GAUAAACAUGAGGAUCACCCAUGUCAGGAUAUGCACUAACUAACUAACUAACUAGCUAGCAGAAGGGACACUAC [Amethyst 86] | 33.4 nM | 24.9 nM
